Test results taken from US20220282255, “APTAMER FOR TGF-BETA1 AND USE OF SAME” (RIBOMIC INC., published 2022).

Assays:
TGF-β1 [1] = biological target: T1, TGF-β1 (Homo sapiens, UniProt P01137 P01137:279-390); assay: SPR; receptor-binding inhibition, 4 nM:4 nM; conditions: tags: Recombinant Human TGF-β1, Peprotech; chain copies: 2 (homodimer, inferred)
Description: (§1) Measurement of Inhibitory Activity of Aptamer Against TGF-β1-2 Whether or not the nucleic acids of SEQ ID NOs: 6, 9, 19, 21, 26 inhibit the binding of TGF-β1 to the TGF-β receptor was evaluated by surface plasmon resonance method. For the measurement, Biacore T200 manufactured by GE Healthcare was used, and the measurement was performed by the method shown below. About 1500 RU of protein A was immobilized on the surface of a sensor chip of CM4 chip by using an amine coupling kit. 20 μL of Fc fusion TRII receptor (R&D) adjusted to 30 nM was injected as an analyte at a flow rate of 20 μL/min. As a result, the Fc fusion TRII receptor was immobilized on the surface of the sensor chip of the CM4 chip via protein A. Furthermore, a mixed solution of TGF-β1 (4 nM) or TGF-β1 (10 nM), and nucleic acid (30 nM) was injected. Solution A was used as the running buffer. Based on the RU value of a sample injected with TGF-β1 alone and the RU value before injection of TGF-β1, the effect of suppressing an increase in the RU value when TGF-β1 was injected in the presence of nucleic acid was calculated as the effect of inhibiting the binding of TGF-β1 to the TRII receptor.
The nucleic acids of SEQ ID NOs: 42(2-1)-42(2-8) used were chemically synthesized and purified by HPLC. Whether or not these nucleic acids inhibit the binding of TGF-β1 to the TGF-β receptor was determined by injecting a mixed solution of TGF-β1 (4 nM) and nucleic acid (4 nM) in the same manner as in Example 4, and evaluating by the surface plasmon resonance method. Whether or not these nucleic acids inhibit the activity of TGF-β1 was evaluated by adding to the final concentrations of TGF-β1 (80 pM) and nucleic acid (312.5 pM), and by a luciferase reporter assay as in Example 4.

TGF-β1 [2] = biological target: T1, TGF-β1; assay: cell_activity; 80 pM:312.5 pM; conditions: tags: Recombinant Human TGF-β1, Peprotech; chain copies: 2 (homodimer, inferred)
Description: Whether the nucleic acids of SEQ ID NOs: 4-13, 17-22, 26-28 inhibit the activity of TGF-β1 was evaluated by a cell assay system that monitors Smad signaling pathway known to be activated by the stimulation of TGF-β. To be specific, photinus luciferase equipped with SBE (Smad-binding element) in the promoter region was used as a reporter (pGL4.48[luc2P/SBE/Hygro] Vector, Promega KK). Together with this SBE-induced photinus luciferase reporter plasmid, a renillaluciferase expression plasmid (pGL4.74[hRluc/TK] Vector, Promega KK) was mixed at a ratio of 20:1 as a standardized control for transfection efficiency, and transfected into HEK293 cells. The transfected HEK293 cells were re-seeded in a 96-well plate and cultured until confluent. […] Thereafter, the expression levels of photinus luciferase and renillaluciferase were confirmed using Dual-Luciferase (registered trade mark) Reporter Assay System (Promega KK). The measurement value of photinus luciferase in each sample was corrected with the measured value of renillaluciferase, and the relative expression level of each sample was calculated by setting the ratio of photinus luciferase and renillaluciferase in a sample free of addition of TGF-β1 as 1. […] When a nucleic acid pool of 35N, 40N or 50N (SEQ ID NO: 14, 1, 23) was used as a negative control and a known TGF-β antibody (R&D, MAB1835) was used as a positive control, the same treatment and measurement were performed.
(§2) The nucleic acids of SEQ ID NOs: 42(2-1)-42(2-8) used were chemically synthesized and purified by HPLC. Whether or not these nucleic acids inhibit the binding of TGF-β1 to the TGF-β receptor was determined by injecting a mixed solution of TGF-β1 (4 nM) and nucleic acid (4 nM) in the same manner as in Example 4, and evaluating by the surface plasmon resonance method.

TGF-β1 [3] = biological target: T1, TGF-β1; assay: cell_activity; 80 pM:312.5 pM; conditions: tags: Recombinant Human TGF-β1, Peprotech; chain copies: 2 (homodimer, inferred); remark: listed apart in the source
Description: (§3) Whether the nucleic acids of SEQ ID NOs: 4-13, 17-22, 26-28 inhibit the activity of TGF-β1 was evaluated by a cell assay system that monitors Smad signaling pathway known to be activated by the stimulation of TGF-β. To be specific, photinus luciferase equipped with SBE (Smad-binding element) in the promoter region was used as a reporter (pGL4.48[luc2P/SBE/Hygro] Vector, Promega KK). Together with this SBE-induced photinus luciferase reporter plasmid, a renillaluciferase expression plasmid (pGL4.74[hRluc/TK] Vector, Promega KK) was mixed at a ratio of 20:1 as a standardized control for transfection efficiency, and transfected into HEK293 cells. The transfected HEK293 cells were re-seeded in a 96-well plate and cultured until confluent. TGF-β1 and a mixture of nucleic acid aptamers of SEQ ID NOs: 4-13, 17-22, 26-28 synthesized using T7 RNA polymerase (Y639F) were added thereto to respective final concentrations of 80 pM, 20 nM, and the cells were cultured for 3 hr. Thereafter, the expression levels of photinus luciferase and renillaluciferase were confirmed using Dual-Luciferase (registered trade mark) Reporter Assay System (Promega KK). The measurement value of photinus luciferase in each sample was corrected with the measured value of renillaluciferase, and the relative expression level of each sample was calculated by setting the ratio of photinus luciferase and renillaluciferase in a sample free of addition of TGF-β1 as 1. […] When a nucleic acid pool of 35N, 40N or 50N (SEQ ID NO: 14, 1, 23) was used as a negative control and a known TGF-β antibody (R&D, MAB1835) was used as a positive control, the same treatment and measurement were performed.
Whether or not these nucleic acids inhibit the activity of TGF-β1 was evaluated by adding to the final concentrations of TGF-β1 (80 pM) and nucleic acid (312.5 pM), and by a luciferase reporter assay as in Example 4.

TGF-β1 [4] = biological target: T1, TGF-β1; assay: SPR; receptor-binding inhibition, 4 nM:4 nM; conditions: tags: Recombinant Human TGF-β1, Peprotech; chain copies: 2 (homodimer, inferred); remark: listed apart in the source
Description: as §1
as §2, with “42-48” for “42(2-1)-42(2-8)”

TGF-β1 [5] = biological target: T1, TGF-β1; assay: SPR; ++; conditions: tags: Recombinant Human TGF-β1, Peprotech; chain copies: 2 (homodimer, inferred)
TGF-β1 [6] = biological target: T1, TGF-β1; assay: cell_activity; 80 pM:20 nM; conditions: tags: Recombinant Human TGF-β1, Peprotech; chain copies: 2 (homodimer, inferred); G4 (predicted)
Description: as §3
Whether or not these nucleic acids inhibit the activity of TGF-β1 was evaluated by a luciferase reporter assay similar to that in Example 4, as in Example 1.

TGF-β1 [7] = biological target: T1, TGF-β1; assay: cell_activity; SBE-luciferase HEK293, 80 pM:20 nM; conditions: tags: Recombinant Human TGF-β1, Peprotech; chain copies: 2 (homodimer, inferred)
Description: as §3

T1 sequence (P01137 279-390, one chain of several): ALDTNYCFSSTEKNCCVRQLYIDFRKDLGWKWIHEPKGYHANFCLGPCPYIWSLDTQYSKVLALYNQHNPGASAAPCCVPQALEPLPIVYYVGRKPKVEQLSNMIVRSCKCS

B1: SEQ ID NO: 42(2-3) (ssRNA)
RNA: GGCAUAAGGGAGGGGAGACUUGUGGAGGGCAAG
modifications: 2'-OMe at A4, A11; 2'-F all pyrimidines
binding signal (TGF-β1 [1]): 70.7 % inhibition | activity (TGF-β1 [2]): 66 % inhibition

B2: SEQ ID NO: 42(2-1) (ssRNA)
RNA: GGCAUAAGGGAGGGGAGACUUGUGGAGGGCAAG
modifications: 2'-OMe at A11, A26; 2'-F all pyrimidines
binding signal (TGF-β1 [1]): 75.2 % inhibition | activity (TGF-β1 [2]): 61 % inhibition

B3: SEQ ID NO: 42(2-8) (ssRNA)
RNA: GGCAUAAGGGAGGGGAGACUUGUGGAGGGCAAG
modifications: 2'-OMe at A11, G33; 2'-F all pyrimidines
binding signal (TGF-β1 [1]): 83 % inhibition | activity (TGF-β1 [2]): 72 % inhibition

B4: SEQ ID NO: 44 (ssRNA)
RNA: GGCAUAAGGGCGGGGAGACUUGUGGAGGGCAAG
modifications: 2'-F all pyrimidines (U,C)
activity (TGF-β1 [3]): 69.4 % inhibition | binding signal (TGF-β1 [4]): 98.7 % inhibition

B5: SEQ ID NO: 42(2-4) (ssRNA)
RNA: GGCAUAAGGGAGGGGAGACUUGUGGAGGGCAAG
modifications: 2'-OMe at A11, A16; 2'-F all pyrimidines
binding signal (TGF-β1 [1]): 84.2 % inhibition | activity (TGF-β1 [2]): 64 % inhibition

B6: SEQ ID NO: 47 (ssRNA)
RNA: GGCAUAAGGGCGGGGAGACUUGUGGUGGGCAAG
modifications: 2'-F all pyrimidines (U,C)
activity (TGF-β1 [3]): 70.3 % inhibition | binding signal (TGF-β1 [4]): 99.2 % inhibition

B7: SEQ ID NO: 42(2-7) (ssRNA)
RNA: GGCAUAAGGGAGGGGAGACUUGUGGAGGGCAAG
modifications: 2'-OMe at A11, A32; 2'-F all pyrimidines
binding signal (TGF-β1 [1]): 78.9 % inhibition | activity (TGF-β1 [2]): 78 % inhibition

B8: SEQ ID NO: 46 (ssRNA)
RNA: GGCAUAAGGGUGGGGAGACUUGUGGUGGGCAAG
modifications: 2'-F all pyrimidines (U,C)
activity (TGF-β1 [3]): 57.3 % inhibition | binding signal (TGF-β1 [4]): 99.2 % inhibition

B9: SEQ ID NO: 42(2-5) (ssRNA)
RNA: GGCAUAAGGGAGGGGAGACUUGUGGAGGGCAAG
modifications: 2'-OMe at A11, G17; 2'-F all pyrimidines
binding signal (TGF-β1 [1]): 75.6 % inhibition | activity (TGF-β1 [2]): 62 % inhibition

B10: SEQ ID NO: 48 (ssRNA)
RNA: GGCAUAAGGGAGGGGAGACUUGUGGCGGGUAAA
modifications: 2'-F all pyrimidines (U,C)
activity (TGF-β1 [3]): 63.9 % inhibition | binding signal (TGF-β1 [4]): 93.5 % inhibition

B11: SEQ ID NO: 42(2-2) (ssRNA)
RNA: GGCAUAAGGGAGGGGAGACUUGUGGAGGGCAAG
modifications: 2'-OMe at G1, A11; 2'-F all pyrimidines
binding signal (TGF-β1 [1]): 76 % inhibition | activity (TGF-β1 [2]): 66 % inhibition

B12: SEQ ID NO: 43 (ssRNA)
RNA: GGCAUAAGGGUGGGGAGACUUGUGGAGGGCAAG
modifications: 2'-F all pyrimidines (U,C)
activity (TGF-β1 [3]): 71.5 % inhibition | binding signal (TGF-β1 [4]): 99 % inhibition

B13: SEQ ID NO: 45 (ssRNA)
RNA: GGCAUAAGGGAGGGGAGACUUGUGGUGGGCAAG
modifications: 2'-F all pyrimidines (U,C)
activity (TGF-β1 [3]): 65.5 % inhibition | binding signal (TGF-β1 [4]): 99.2 % inhibition

B14: SEQ ID NO: 42(2-6) (ssRNA)
RNA: GGCAUAAGGGAGGGGAGACUUGUGGAGGGCAAG
modifications: 2'-OMe at A11, A31; 2'-F all pyrimidines
binding signal (TGF-β1 [1]): 81.8 % inhibition | activity (TGF-β1 [2]): 72 % inhibition

B15: SEQ ID NO: 5 (ssRNA)
RNA: GGGAUCCGCAUCUAGAGUACAUCGUGGCGGGAAAGCCGCCCCAUUCUCUCGGGUCCUAGAAACGUCUACUGAAGCUAUCA
modifications: 2'-F all pyrimidines (U,C)
binding result (TGF-β1 [5]): binds

B16: SEQ ID NO: 36 (ssRNA)
RNA: GGGAGAACUUGGAGCUCCUGAAUAAGGGAGGGGAGACUUGUGGAGGGCAAAAGUGCGACGUCAGUC
modifications: 2'-F all pyrimidines (U,C)
activity (TGF-β1 [6]): 101 % inhibition

B17: SEQ ID NO: 37 (ssRNA)
RNA: GGGAGAACUUGGAGCUCCUGAAUAAGGGAGGGGAGACUUGUGGUGGGCAAGAGUGCGACGUCAGUC
modifications: 2'-F all pyrimidines (U,C)
activity (TGF-β1 [6]): 100 % inhibition

B18: SEQ ID NO: 35 (ssRNA)
RNA: GGGAGAACUUGGAGCUCCUGAAUAAGGGAGGGGAGACUUGUGGAGGGCAAGAGUGCGACGUCAGUC
modifications: 2'-F all pyrimidines (U,C)
activity (TGF-β1 [6]): 100 % inhibition

B19: SEQ ID NO: 18 (ssRNA)
RNA: GGGAGAACUUGGAGCUCCCCCUCGCACUUAAUGGGUUCUGUGGCUGGAGAAAGUGCGACGUCAGUC
modifications: 2'-F all pyrimidines (U,C)
binding result (TGF-β1 [5]): binds

B20: SEQ ID NO: 20 (ssRNA)
RNA: GGGAGAACUUGGAGCUGGUCCGGAAACUGGAUUCUCUCUAAAAGGGGUACCAGUGCGACGUCAGUC
modifications: 2'-F all pyrimidines (U,C)
binding result (TGF-β1 [5]): binds

B21: SEQ ID NO: 22 (ssRNA)
RNA: GGGAGAACUUGGAGCUUGACGGCGCUACAUUAUGCUCCAACGGUACUUUAUAGUGCGACGUCAGUC
modifications: 2'-F all pyrimidines (U,C)
binding result (TGF-β1 [5]): binds

B22: SEQ ID NO: 28 (ssRNA)
RNA: GGGAAUGCACUAGUGUUCAAUAAACACUAAGUGAUCCUCCUGCAAGCUAUGAAGAACUUAACGGCUCGUAAAGCUUGCACGUCGAGUCAG
modifications: 2'-F all pyrimidines (U,C)
binding result (TGF-β1 [5]): binds

B23: SEQ ID NO: 4 (ssRNA)
RNA: GGGAUCCGCAUCUAGAGUACUAAGGGUGGGGAGACUUGGGCCGGGCAGUCAGACGCGUGAAACGUCUACUGAAGCUAUCA
modifications: 2'-F all pyrimidines (U,C)
activity (TGF-β1 [7]): 63 % inhibition

B24: SEQ ID NO: 11 (ssRNA)
RNA: GGGAUCCGCAUCUAGAGUACCGCGUGAGCGGCGUCUUGCUAUGACGUAAAGAAUCGUUACAACGUCUACUGAAGCUAUCA
modifications: 2'-F all pyrimidines (U,C)
binding result (TGF-β1 [5]): binds

B25: SEQ ID NO: 19 (ssRNA)
RNA: GGGAGAACUUGGAGCUCCCCCUCGCAUUCGGAUUAAUUUGUGACUGCAUUGAGUGCGACGUCAGUC
modifications: 2'-F all pyrimidines (U,C)
activity (TGF-β1 [7]): 91 % inhibition
